The subject of the assay is UMR 106-01 rat osteosarcoma cells. The experiment in a line: Binding of 125I-labeled proteinases to UMR 106-01 cells. The settings on record: 125I-labeled ligand 8 nM; means ± SEM for triplicate wells.

B1: Human MMP-2: human 72 kDa gelatinase (MMP-2) (protein, UniProt P08253 110-660, looked up)
72 kDa type IV collagenase: YNFFPRKPKWDKNQITYRIIGYTPDLDPETVDDAFARAFQVWSDVTPLRFSRIHDGEADIMINFGRWEHGDGYPFDGKDGLLAHAFAPGTGVGGDSHFDDDELWTLGEGQVVRVKYGNADGEYCKFPFLFNGKEYNSCTDTGRSDGFLWCSTTYNFEKDGKYGFCPHEALFTMGGNAEGQPCKFPFRFQGTSYDSCTTEGRTDGYRWCGTTEDYDRDKKYGFCPETAMSTVGGNSEGAPCVFPFTFLGNKYESCTSAGRSDGKMWCATTANYDDDRKWGFCPDQGYSLFLVAAHEFGHAMGLEHSQDPGALMAPIYTYTKNFRLSQDDIKGIQELYGASPDIDLGTGPTPTLGPVTPEICKQDIVFDGIAQIRGEIFFFKDRFIWRTVTPRDKPMGPLLVATFWPELPEKIDAVYEAPQEEKAVFFAGNEYWIYSASTLERGYPKPLTSLGLPPDVQRVDAAFNWSKNKKTYIFAGDKFWRYNEVKKKMDPGFPKLIADAWNAIPDNLDAVVDLQGGGHSYFFKGAYYLKLENQSLKSVKFGSIKSDWLGC
B1 gave a Specific binding of 0.0 ± 0.0 fmol/2.6 × 10^5 cells.
